These results are taken from IntAct's records for PubMed 31046837.

The target of this assay is at2a2_mouse Atp2a2 (UniProt O55143).
Sequence of at2a2_mouse Atp2a2 (O55143 whole entry): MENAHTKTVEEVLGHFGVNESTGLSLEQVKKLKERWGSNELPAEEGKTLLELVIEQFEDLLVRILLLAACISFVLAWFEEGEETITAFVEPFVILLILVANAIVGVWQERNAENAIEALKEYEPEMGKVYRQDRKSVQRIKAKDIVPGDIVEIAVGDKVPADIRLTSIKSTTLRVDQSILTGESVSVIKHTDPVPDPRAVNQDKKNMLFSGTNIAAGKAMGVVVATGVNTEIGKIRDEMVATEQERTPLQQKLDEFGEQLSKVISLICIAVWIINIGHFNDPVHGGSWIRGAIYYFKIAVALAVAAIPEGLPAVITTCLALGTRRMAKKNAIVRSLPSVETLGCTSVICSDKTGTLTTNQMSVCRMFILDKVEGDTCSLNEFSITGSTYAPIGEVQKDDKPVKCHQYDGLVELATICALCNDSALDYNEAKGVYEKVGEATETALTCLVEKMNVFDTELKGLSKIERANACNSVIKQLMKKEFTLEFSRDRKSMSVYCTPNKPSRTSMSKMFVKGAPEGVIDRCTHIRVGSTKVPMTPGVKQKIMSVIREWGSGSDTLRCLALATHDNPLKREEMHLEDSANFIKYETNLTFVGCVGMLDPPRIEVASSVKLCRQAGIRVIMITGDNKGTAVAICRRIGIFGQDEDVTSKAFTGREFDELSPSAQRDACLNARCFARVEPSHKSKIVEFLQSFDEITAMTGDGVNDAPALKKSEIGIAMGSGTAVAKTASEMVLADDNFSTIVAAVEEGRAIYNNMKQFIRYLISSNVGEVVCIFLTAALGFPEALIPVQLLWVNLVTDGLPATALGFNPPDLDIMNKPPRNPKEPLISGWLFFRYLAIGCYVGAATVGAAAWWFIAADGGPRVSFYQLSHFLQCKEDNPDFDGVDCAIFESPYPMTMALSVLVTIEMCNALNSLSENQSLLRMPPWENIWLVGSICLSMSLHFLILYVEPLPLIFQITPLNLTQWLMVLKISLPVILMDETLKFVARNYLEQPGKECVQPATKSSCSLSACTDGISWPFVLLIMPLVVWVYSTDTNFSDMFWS

Take “Leucine-rich repeat serine/threonine-protein kinase 2 (Homo sapiens), Q5S007 G2019S”: the “effect of a mutation on the interaction” value is “increasing interaction strength”.
